Earlier results in PMC11145553.

Target: LRP1 (Homo sapiens) (UniProt Q07954)

2N4R tau, sequence (P10636 2-758): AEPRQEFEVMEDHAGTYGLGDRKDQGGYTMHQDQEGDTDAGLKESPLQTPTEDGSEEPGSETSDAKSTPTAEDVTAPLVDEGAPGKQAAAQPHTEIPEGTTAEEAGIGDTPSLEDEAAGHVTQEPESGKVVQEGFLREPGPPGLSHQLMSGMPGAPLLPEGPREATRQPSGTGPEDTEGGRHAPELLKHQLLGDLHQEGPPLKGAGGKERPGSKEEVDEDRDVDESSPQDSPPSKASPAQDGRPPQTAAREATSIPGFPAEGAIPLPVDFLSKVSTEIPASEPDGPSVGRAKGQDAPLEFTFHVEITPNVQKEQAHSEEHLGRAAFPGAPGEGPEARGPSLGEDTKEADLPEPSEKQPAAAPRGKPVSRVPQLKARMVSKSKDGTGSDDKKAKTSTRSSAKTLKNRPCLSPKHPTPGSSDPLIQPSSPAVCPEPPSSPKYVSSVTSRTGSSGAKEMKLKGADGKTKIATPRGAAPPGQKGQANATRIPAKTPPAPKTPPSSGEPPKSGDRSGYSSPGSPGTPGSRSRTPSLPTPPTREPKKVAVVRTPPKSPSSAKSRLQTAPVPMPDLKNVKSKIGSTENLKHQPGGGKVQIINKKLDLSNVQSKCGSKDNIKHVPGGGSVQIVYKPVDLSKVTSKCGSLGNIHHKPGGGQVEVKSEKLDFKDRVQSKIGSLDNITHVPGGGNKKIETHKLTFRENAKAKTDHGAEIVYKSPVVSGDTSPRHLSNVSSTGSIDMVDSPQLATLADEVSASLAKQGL

Which Kd does the source give for 2N4R tau (from UniProt P10636) here?
Its Kd is 60 nM.
